The source of these data is publication PMC4836274, “Cytokine-Like Factor 1, an Essential Facilitator of Cardiotrophin-Like Cytokine:Ciliary Neurotrophic Factor Receptor α Signaling and sorLA-Mediated Turnover” (Molecular and Cellular Biology, 2016).

T1: sorLA Vps10p-D (human)
T1 chain: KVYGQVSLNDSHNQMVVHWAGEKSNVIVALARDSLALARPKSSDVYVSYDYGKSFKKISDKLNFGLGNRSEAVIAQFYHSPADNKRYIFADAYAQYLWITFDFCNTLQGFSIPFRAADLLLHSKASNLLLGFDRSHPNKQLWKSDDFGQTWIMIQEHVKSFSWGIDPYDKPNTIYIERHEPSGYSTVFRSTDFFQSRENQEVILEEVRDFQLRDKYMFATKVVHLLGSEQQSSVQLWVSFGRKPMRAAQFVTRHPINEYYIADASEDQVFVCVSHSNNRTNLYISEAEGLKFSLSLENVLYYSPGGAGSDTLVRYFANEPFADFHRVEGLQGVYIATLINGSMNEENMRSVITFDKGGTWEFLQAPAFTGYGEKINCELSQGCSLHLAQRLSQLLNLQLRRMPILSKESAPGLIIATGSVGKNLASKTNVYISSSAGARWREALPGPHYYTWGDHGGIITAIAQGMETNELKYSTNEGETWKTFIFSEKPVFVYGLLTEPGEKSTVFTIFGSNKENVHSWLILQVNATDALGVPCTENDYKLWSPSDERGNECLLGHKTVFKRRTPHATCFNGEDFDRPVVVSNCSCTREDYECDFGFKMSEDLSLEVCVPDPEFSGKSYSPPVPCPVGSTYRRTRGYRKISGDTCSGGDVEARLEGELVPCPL

T2: recombinant soluble ciliary neurotrophic factor receptor α (human), P26992
T2 chain: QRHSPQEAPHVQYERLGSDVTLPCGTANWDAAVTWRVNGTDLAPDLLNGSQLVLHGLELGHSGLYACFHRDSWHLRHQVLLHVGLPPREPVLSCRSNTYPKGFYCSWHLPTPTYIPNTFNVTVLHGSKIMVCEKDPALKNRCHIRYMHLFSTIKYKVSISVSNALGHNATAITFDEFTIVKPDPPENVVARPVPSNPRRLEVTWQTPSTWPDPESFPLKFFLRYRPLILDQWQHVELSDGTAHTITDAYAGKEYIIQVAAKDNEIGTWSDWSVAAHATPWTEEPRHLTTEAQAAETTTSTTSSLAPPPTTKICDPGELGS

B1: cardiotrophin-like cytokine (ligand, human, UniProt Q9UBD9 28-225, looked up)
chain: LNRTGDPGPGPSIQKTYDLTRYLEHQLRSLAGTYLNYLGPPFNEPDFNPPRLGAETLPRATVDLEVWRSLNDKLRLTQNYEAYSHLLCYLRGLNRQAATAELRRSLAHFCTSLQGLLGSIAGVMAALGYPLPQPLPGTEPTWTPGPAHSDFLQKMDDFWLLKELQTWLWRSAKDFNRLKKKMQPPAAAVTLHLGAHGF
notes: cardiotrophin-like cytokine (CLC), human recombinant; also called CLC; source: bought: R&D Systems (bacteria)
B2: recombinant soluble ciliary neurotrophic factor receptor α (receptor, human, UniProt P26992 23-342, looked up)
chain: T2 chain
notes: CNTF receptor α, human, soluble recombinant form; also called sCNTFRα; soluble CNTFRα; source: bought: R&D Systems
B3: CLF-1–His (His-tagged cytokine-like factor-1) (natural protein, human, UniProt O75462 38-422, looked up)
chain: AHTAVISPQDPTLLIGSSLLATCSVHGDPPGATAEGLYWTLNGRRLPPELSRVLNASTLALALANLNGSRQRSGDNLVCHARDGSILAGSCLYVGLPPEKPVNISCWSKNMKDLTCRWTPGAHGETFLHTNYSLKYKLRWYGQDNTCEEYHTVGPHSCHIPKDLALFTPYEIWVEATNRLGSARSDVLTLDILDVVTTDPPPDVHVSRVGGLEDQLSVRWVSPPALKDFLFQAKYQIRYRVEDSVDWKVVDDVSNQTSCRLAGLKPGTVYFVQVRCNPFGIYGSKKAGIWSEWSHPTAASTPRSERPGPGGGACEPRGGEPSSGPVRRELKQFLGWLKKHAYCSNLSFRLYDQWRAWMQKSHKTRNQDEGILPSGRRGTARGPAR
notes: signal peptide in the construct; human CLF-1 coding cDNA (ImaGenes) amplified from the start codon to the C terminus, secreted into the medium; The second codon of the forward primer reads GCC (Ala); this lies in the signal peptide; The introduction gives 385 amino acids for human CLF-1; also called His-tagged CLF-1; source: HEK293 cells transfected, purified from serum-free medium (Talon resin) …
B4: cardiotrophin-like cytokine:cytokine-like factor-1 heterodimer (complex, human)
chain 1: B1 chain
chain 2: B3 chain
notes: cardiotrophin-like cytokine (CLC), human, subunit of the bought recombinant heterodimer; cytokine-like factor-1 (CLF-1; cytokine receptor-like factor 1), human, subunit of the bought recombinant heterodimer; also called CLC:CLF-1; His-tagged CLC:CLF-1; source: bought: R&D Systems (insect cells)

Test [1] deals with B2. In words: SPR; Biacore 3000, CM5 chip; sCNTFRα immobilised at 66 to 86 fmol/mm^2; 25°C; 10 mM HEPES, 150 mM NaCl, 1.5 mM CaCl2, 1 mM EGTA, 0.005% Tween 20, pH 7.4; Langmuir 1:1 model, global fitting. To be noted: both partners purified.
The target in test [2] is T3, soluble sorLA (entire luminal part of sorLA) (human, UniProt Q92673 82-2137).
T3 construct: sorLA, human cDNA, the entire luminal (extracellular) part; also called luminal domain of sorLA; ectodomain of sorLA
T3 sequence (Q92673 82-2137): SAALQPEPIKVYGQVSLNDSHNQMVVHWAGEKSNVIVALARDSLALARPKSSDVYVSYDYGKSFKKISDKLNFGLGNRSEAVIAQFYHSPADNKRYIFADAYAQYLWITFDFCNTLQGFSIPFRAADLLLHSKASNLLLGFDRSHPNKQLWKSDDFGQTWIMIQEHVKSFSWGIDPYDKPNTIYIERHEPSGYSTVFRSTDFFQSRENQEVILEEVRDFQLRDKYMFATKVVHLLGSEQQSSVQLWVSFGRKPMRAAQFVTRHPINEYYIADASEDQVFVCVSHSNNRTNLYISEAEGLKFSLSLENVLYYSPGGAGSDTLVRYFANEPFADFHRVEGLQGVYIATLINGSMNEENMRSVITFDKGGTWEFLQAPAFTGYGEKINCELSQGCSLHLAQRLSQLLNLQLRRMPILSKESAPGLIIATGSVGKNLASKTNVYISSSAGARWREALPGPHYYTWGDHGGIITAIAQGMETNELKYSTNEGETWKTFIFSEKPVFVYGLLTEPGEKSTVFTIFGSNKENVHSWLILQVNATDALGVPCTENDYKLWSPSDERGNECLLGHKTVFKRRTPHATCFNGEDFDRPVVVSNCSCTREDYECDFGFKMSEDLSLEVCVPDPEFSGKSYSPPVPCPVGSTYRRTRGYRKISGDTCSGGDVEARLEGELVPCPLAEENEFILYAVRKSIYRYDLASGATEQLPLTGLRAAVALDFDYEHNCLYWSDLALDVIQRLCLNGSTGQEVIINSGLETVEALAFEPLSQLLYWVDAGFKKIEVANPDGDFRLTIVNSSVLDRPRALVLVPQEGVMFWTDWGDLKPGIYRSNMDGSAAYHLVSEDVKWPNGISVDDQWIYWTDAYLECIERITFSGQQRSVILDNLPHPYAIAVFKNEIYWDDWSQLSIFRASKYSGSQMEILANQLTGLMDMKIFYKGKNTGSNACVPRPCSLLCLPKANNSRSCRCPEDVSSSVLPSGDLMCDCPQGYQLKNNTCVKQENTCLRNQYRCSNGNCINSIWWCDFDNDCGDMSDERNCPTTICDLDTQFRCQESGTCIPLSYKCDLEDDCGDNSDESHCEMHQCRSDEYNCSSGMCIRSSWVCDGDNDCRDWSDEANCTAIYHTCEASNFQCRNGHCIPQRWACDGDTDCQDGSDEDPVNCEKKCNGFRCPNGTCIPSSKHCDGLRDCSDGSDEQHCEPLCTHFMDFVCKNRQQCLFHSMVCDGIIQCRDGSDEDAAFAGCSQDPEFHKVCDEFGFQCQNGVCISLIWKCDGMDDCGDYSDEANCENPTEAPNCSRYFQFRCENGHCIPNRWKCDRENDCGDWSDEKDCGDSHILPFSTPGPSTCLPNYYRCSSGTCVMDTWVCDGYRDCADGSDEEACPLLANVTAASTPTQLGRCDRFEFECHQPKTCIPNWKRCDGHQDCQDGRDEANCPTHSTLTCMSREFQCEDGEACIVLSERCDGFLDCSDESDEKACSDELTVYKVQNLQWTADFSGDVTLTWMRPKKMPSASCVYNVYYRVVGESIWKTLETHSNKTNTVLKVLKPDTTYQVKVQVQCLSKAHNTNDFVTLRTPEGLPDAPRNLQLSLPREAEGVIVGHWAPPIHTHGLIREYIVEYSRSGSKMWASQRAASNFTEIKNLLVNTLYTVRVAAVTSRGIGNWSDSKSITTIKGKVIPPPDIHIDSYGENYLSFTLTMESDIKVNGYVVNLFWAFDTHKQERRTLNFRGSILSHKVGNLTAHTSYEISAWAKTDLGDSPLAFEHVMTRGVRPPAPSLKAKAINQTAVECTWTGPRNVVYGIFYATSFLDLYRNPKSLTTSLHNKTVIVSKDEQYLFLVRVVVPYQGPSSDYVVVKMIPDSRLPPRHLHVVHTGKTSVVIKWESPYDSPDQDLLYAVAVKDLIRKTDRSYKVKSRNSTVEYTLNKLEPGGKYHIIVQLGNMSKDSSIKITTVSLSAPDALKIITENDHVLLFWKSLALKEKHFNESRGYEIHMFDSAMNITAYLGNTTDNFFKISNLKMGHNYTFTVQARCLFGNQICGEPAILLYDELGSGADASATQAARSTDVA
In words: SPR; immobilised sorLA preincubated with buffer or with 5 μM inhibitor (sorLA propeptide or RAP) before the ligand was added. To be noted: both partners purified. (SPR reads the build-up and loss of mass on a sensor chip optically.)

Test [3] concerns the target B4. Briefly: SPR; Biacore 3000, CM5 chip; sCNTFRα immobilised at 66 to 86 fmol/mm^2; 25°C; 10 mM HEPES, 150 mM NaCl, 1.5 mM CaCl2, 1 mM EGTA, 0.005% Tween 20, pH 7.4; Langmuir 1:1 model, global fitting. To be noted: both partners purified.
A further test concerns the target T1, sorLA Vps10p-D. Briefly: SPR.
Test [4] has as its target T2, recombinant soluble ciliary …. Briefly: SPR; Biacore 3000, CM5 chip; sCNTFRα immobilised at 66 to 86 fmol/mm^2; 25°C; 10 mM HEPES, 150 mM NaCl, 1.5 mM CaCl2, 1 mM EGTA, 0.005% Tween 20, pH 7.4; Langmuir 1:1 model, global fitting. To be noted: remark: other sources report otherwise.
For test [5], the target named is T3, soluble sorLA (entire luminal part of …). Briefly: SPR; Biacore 3000, CM5 chip; soluble sorLA (entire luminal part) immobilised at 66 to 86 fmol/mm^2; 25°C; 10 mM HEPES, 150 mM NaCl, 1.5 mM CaCl2, 1 mM EGTA, 0.005% Tween 20, pH 7.4; Langmuir 1:1 model, global fitting. To be noted: both partners purified.
In test [6] the target is full-length sorLA in transfected HEK293 cells (human, UniProt Q92673 82-2214). In words: cell-based or functional assay.
full-length sorLA in transfected HEK293 cells, sequence (Q92673 82-2214): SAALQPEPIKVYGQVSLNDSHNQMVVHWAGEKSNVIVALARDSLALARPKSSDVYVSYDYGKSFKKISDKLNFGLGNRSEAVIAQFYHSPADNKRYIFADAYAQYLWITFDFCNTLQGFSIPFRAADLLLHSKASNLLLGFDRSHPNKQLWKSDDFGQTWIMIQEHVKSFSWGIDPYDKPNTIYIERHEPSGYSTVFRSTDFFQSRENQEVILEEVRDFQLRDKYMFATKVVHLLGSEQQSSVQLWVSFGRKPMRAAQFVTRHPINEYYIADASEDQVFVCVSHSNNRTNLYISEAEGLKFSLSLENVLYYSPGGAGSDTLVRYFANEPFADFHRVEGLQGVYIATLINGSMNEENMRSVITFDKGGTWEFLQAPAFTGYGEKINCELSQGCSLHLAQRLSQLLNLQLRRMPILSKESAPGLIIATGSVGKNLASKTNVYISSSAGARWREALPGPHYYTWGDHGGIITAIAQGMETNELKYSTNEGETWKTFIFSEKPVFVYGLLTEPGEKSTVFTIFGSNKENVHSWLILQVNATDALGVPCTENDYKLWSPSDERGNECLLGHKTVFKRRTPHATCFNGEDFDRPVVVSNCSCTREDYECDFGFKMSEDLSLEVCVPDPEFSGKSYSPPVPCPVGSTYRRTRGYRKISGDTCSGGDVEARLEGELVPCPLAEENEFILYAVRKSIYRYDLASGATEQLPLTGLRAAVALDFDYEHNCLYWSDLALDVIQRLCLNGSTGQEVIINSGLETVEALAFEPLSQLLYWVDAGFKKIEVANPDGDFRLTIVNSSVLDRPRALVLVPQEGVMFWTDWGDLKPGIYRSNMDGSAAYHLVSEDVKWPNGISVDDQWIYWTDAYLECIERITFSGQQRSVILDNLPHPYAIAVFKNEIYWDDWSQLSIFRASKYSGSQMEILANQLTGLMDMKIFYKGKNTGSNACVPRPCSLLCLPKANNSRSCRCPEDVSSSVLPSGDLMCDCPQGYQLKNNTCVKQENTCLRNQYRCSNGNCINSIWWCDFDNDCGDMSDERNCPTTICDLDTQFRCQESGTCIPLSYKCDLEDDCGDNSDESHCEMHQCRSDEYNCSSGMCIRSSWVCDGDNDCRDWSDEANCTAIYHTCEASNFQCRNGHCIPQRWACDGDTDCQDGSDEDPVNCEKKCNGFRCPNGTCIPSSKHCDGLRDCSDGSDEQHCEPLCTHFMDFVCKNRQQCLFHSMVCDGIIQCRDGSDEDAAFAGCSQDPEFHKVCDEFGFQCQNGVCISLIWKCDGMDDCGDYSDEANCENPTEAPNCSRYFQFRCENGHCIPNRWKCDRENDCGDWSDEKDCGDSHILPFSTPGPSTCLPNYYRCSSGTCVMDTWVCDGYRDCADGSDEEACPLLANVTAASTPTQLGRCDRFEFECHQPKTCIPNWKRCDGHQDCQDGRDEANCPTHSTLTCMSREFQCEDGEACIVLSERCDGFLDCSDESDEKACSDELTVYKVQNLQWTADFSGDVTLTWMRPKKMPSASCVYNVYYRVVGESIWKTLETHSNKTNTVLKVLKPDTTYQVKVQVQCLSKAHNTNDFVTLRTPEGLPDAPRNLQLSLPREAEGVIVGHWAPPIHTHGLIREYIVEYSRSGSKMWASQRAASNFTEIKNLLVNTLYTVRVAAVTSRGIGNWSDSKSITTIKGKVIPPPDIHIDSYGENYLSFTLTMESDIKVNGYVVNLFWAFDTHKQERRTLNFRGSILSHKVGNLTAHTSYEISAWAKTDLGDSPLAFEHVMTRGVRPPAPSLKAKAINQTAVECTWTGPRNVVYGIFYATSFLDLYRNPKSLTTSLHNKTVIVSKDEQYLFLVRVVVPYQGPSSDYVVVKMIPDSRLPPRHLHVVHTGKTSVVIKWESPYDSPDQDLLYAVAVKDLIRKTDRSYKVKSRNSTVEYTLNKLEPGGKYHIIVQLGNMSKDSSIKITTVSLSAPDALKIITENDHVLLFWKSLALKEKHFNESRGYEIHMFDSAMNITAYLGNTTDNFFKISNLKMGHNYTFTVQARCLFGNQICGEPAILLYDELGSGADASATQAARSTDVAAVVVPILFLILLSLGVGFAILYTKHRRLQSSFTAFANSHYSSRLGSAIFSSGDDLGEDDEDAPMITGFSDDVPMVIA

By Kd is commonly meant the equilibrium constant for the complex coming apart. For B1, the Kd in test [1] came to 66 nM.
Consider B2, for which the binding result in test [2] is “binds”. The results for the Kd (in test [3]; with sorLA Vps10p-D) were 0.3 nM and about 14 nM, respectively.
B3: the dissociation constant (Kd) in test [4] and in test [5] was 4 nM in each case.
In turn, B4 had a Kd in test [5] of 5 nM. Further, the “pSTAT3 in CNTFRα-deficient Ba/F3 cells (gp130/LIFRβ) stimulated with CLC:CLF-1 and sCNTFRα, sorLA transfectants against untransfected cells” value in test [6] is about 4 fold.
